The labels stand for the following.
B1: SEQ ID NO: 196 (peptide)
peptide: [Phe(4-(4-Ac-piperazinyl))][4Pal][Phe(4-COOH)]G[cisHyp][Trp(βS-Me,4-F)][Aib]SW[Aib][Ala(pyrimidin-5-yl)]Q[Dab]G[dPro(4R-Bzl(4-F))]
modifications: lactam (positions not given here); also: macrolactam ring, closure sites not given here
B2: SEQ ID NO: 197 (peptide)
peptide: [Phe(4-(5-CO2H-2-pyrimidyl))][4Pal][Phe(4-COOH)]G[cisHyp][Trp(βS-Me,4-F)][Aib]SW[Aib][Ala(pyrimidin-5-yl)]Q[Dab]G[dPro(4R-(4-pyridylmethyl))]
modifications: lactam (positions not given here); also: macrolactam ring, closure sites not given here
B3: SEQ ID NO: 192 (peptide)
peptide: [Bip(4'-COOH)][Ala(1-bicyclo(1.1.1)pentyl)][Phe(4-COOH)]G[cisHyp][Trp(βS-Me,4-F)][Aib]SW[d(αMeS)][Ala(4-THP)]Q[Dab]G[dPro(4R-(4-pyridylmethyl))]
modifications: lactam (positions not given here); also: macrolactam ring, closure sites not given here
B4: SEQ ID NO: 202 (peptide)
peptide: cyclo([Bip(4'-COOH)][Ala(1-bicyclo(1.1.1)pentyl)][Phe(4-COOH)]G[Pro(cis-4-F)][Trp(βS-Me,4-F)][Aib]SW[αMeD][aThr]Q[Dab]G[dPro(4R-(4-pyridylmethyl))])
modifications: ring closure inferred; not fully specified (bridges); printed as Bip4CO2H-AlaPent-Phe4COOH-G-Proc4F-SbMeW4F-Aib-S-W-aMeD-alT-Q-Dab-G-dProc4CH24Pal, cyclic (macrolactam)
B5: SEQ ID NO: 186 (peptide)
peptide: [Phe(4-(5-CO2H-2-pyrimidyl))][4Pal][Phe(4-COOH)]G[Pro(cis-4-F)][Trp(βS-Me,4-F)][Aib]SW[Aib][Ala(pyrimidin-5-yl)]Q[Dab]G[dPro(4R-(4-pyridylmethyl))]
modifications: lactam (positions not given here); also: macrolactam ring, closure sites not given here
B6: SEQ ID NO: 193 (peptide)
peptide: [Bip(4'-COOH)][Ala(1-bicyclo(1.1.1)pentyl)][Phe(4-COOH)]G[Pro(cis-4-F)][Trp(βS-Me,4-F)][Aib]SW[αMeD][Ala(4-THP)]Q[Dab]G[dPro(4R-(4-pyridylmethyl))]
modifications: lactam (positions not given here); also: macrolactam ring, closure sites not given here
B7: SEQ ID NO: 190 (peptide)
peptide: [Bip(4'-COOH)][Ala(1-bicyclo(1.1.1)pentyl)][Phe(4-COOH)]G[cisHyp][Trp(βS-Me,4-F)][Aib]SW[d(αMeS)][Ala(pyrimidin-5-yl)]Q[Dab]G[dPro(4R-(4-pyridylmethyl))]
modifications: lactam (positions not given here); also: macrolactam ring, closure sites not given here
B8: SEQ ID NO: 189 (peptide)
peptide: [Bip(4'-COOH)][4Pal][Phe(4-COOH)]G[Pro(cis-4-F)][Trp(βS-Me,4-F)][Aib]SW[αMeD][Ala(4-THP)]QSG[dPro(4R-(4-pyridylmethyl))]
modifications: lactam (positions not given here); also: macrolactam ring, closure sites not given here
B9: SEQ ID NO: 184 (peptide)
peptide: [Phe(4-(4-Ac-piperazinyl))][4Pal][Phe(4-COOH)]G[Pro(cis-4-F)][Trp(βS-Me,4-F)][Aib]SW[αMeD][Ala(pyrimidin-5-yl)]Q[Dab]G[dPro(4R-Bzl(4-F))]
modifications: lactam (positions not given here); also: macrolactam ring, closure sites not given here
B10: SEQ ID NO: 199 (peptide)
peptide: cyclo([Bip(4'-COOH)][4Pal][Phe(4-COOH)]G[cisHyp][Trp(βS-Me,4-F)][Aib]SW[αMeD][Ala(4-THP)]QSG[dPro(4R-(4-pyridylmethyl))])
modifications: ring closure inferred; not fully specified (bridges); printed as Bip4CO2H-4Pal-Phe4COOH-G-Proc4OH-SbMeW4F-Aib-S-W-aMeD-AlaTHP4-Q-S-G-dProc4CH24Pal, cyclic (macrolactam)
B11: SEQ ID NO: 191 (peptide)
peptide: [Bip(4'-COOH)][Ala(1-bicyclo(1.1.1)pentyl)][Phe(4-COOH)]G[cisHyp][Trp(βS-Me,4-F)][Aib]SW[αMeD][Ala(4-THP)]Q[Dab]G[dPro(4R-(4-pyridylmethyl))]
modifications: lactam (positions not given here); also: macrolactam ring, closure sites not given here
B12: SEQ ID NO: 200 (peptide)
peptide: cyclo([Bip(4'-COOH)][4Pal][Phe(4-COOH)]G[Pro(cis-4-F)][Trp(βS-Me,4-F)][Aib]SW[αMeD][Ala(4-THP)]Q[Dab]G[dPro(4R-(4-pyridylmethyl))])
modifications: ring closure inferred; not fully specified (bridges); printed as Bip4CO2H-4Pal-Phe4COOH-G-Proc4F-SbMeW4F-Aib-S-W-aMeD-AlaTHP4-Q-Dab-G-dProc4CH24Pal, cyclic (macrolactam)
B13: SEQ ID NO: 187 (peptide)
peptide: [Phe(4-(5-CO2H-2-pyrimidyl))][4Pal][Phe(4-COOH)]G[Pro(cis-4-F)][Trp(βS-Me,4-F)][Aib]SW[αMeD][Ala(pyrimidin-5-yl)]Q[Dab]G[dPro(4R-(4-pyridylmethyl))]
modifications: lactam (positions not given here); also: macrolactam ring, closure sites not given here
B14: SEQ ID NO: 188 (peptide)
peptide: [Phe(4-(5-CO2H-2-pyrimidyl))][Ala(1-bicyclo(1.1.1)pentyl)][Phe(4-COOH)]G[Pro(cis-4-F)][Trp(βS-Me,4-F)][Aib]SW[αMeD][Ala(pyrimidin-5-yl)]Q[Dab]G[dPro(4R-(4-pyridylmethyl))]
modifications: lactam (positions not given here); also: macrolactam ring, closure sites not given here
B15: SEQ ID NO: 195 (peptide)
peptide: [Bip(4'-COOH)][4Pal][Phe(4-COOH)]G[cisHyp][Trp(βS-Me,4-F)][Aib]SW[d(αMeS)][Ala(pyrimidin-5-yl)]Q[Dab]G[dPro(4R-(4-pyridylmethyl))]
modifications: lactam (positions not given here); also: macrolactam ring, closure sites not given here
B16: SEQ ID NO: 185 (peptide)
peptide: [Phe(4-(5-CO2H-2-pyrimidyl))][Ala(1-bicyclo(1.1.1)pentyl)][Phe(4-COOH)]G[cisHyp][Trp(βS-Me,4-F)][Aib]SW[Aib][Ala(pyrimidin-5-yl)]Q[Dab]G[dPro(4R-(4-pyridylmethyl))]
modifications: lactam (positions not given here); also: macrolactam ring, closure sites not given here
B17: SEQ ID NO: 198 (peptide)
peptide: [Phe(4-(5-CO2H-2-pyrimidyl))][Ala(1-bicyclo(1.1.1)pentyl)][Phe(4-COOH)]G[Pro(cis-4-F)][SbMcW4F][Aib]SW[Aib][Ala(pyrimidin-5-yl)]Q[Dab]G[dPro(4R-(4-pyridylmethyl))]
modifications: lactam (positions not given here); also: macrolactam ring, closure sites not given here
B18: SEQ ID NO: 194 (peptide)
peptide: [Bip(4'-COOH)][4Pal][Phe(4-COOH)]G[cisHyp][Trp(βS-Me,4-F)][Aib]SW[Aib][Ala(pyrimidin-5-yl)]Q[Dab]G[dPro(4R-(4-pyridylmethyl))]
modifications: lactam (positions not given here); also: macrolactam ring, closure sites not given here
B19: SEQ ID NO: 201 (peptide)
peptide: cyclo([Bip(4'-COOH)][4Pal][Phe(4-COOH)]G[cisHyp][Trp(βS-Me,4-F)][Aib]SW[αMeD][Ala(4-THP)]Q[Dab]G[dPro(4R-(4-pyridylmethyl))])
modifications: ring closure inferred; not fully specified (bridges); printed as Bip4CO2H-4Pal-Phe4COOH-G-Proc4OH-SbMeW4F-Aib-S-W-aMeD-AlaTHP4-Q-Dab-G-dProc4CH24Pal, cyclic (macrolactam)
B20: SEQ ID NO: 203 (peptide)
peptide: cyclo([Bip(4'-COOH)][Ala(1-bicyclo(1.1.1)pentyl)][Phe(4-COOH)]G[Pro(cis-4-F)][Trp(βS-Me,4-F)][Aib]SW[αMeD]VQ[Dab]G[dPro(4R-(4-pyridylmethyl))])
modifications: ring closure inferred; not fully specified (bridges); printed as Bip4CO2H-AlaPent-Phe4COOH-G-Proc4F-SbMeW4F-Aib-S-W-aMeD-V-Q-Dab-G-dProc4CH24Pal, cyclic (macrolactam)

Non-standard residues stand in square brackets, D forms with d. No end group written: not given here. Phe(4-(5-CO2H-2-pyrimidyl)) = N[C@@H](Cc1ccc(-c2ncc(C(=O)O)cn2)cc1)C(=O)O; Phe(4-(4-Ac-piperazinyl)) = CC(=O)N1CCN(c2ccc(C[C@H](N)C(=O)O)cc2)CC1; dPro(4R-(4-pyridylmethyl)) = O=C(O)[C@H]1C[C@@H](Cc2ccncc2)CN1; Trp(βS-Me,4-F) = C[C@@H](c1c[nH]c2cccc(F)c12)[C@H](N)C(=O)O; Bip(4'-COOH) = N[C@@H](Cc1ccc(-c2ccc(C(=O)O)cc2)cc1)C(=O)O; Ala(1-bicyclo(1.1.1)pentyl) = N[C@@H](CC12CC(C1)C2)C(=O)O; dPro(4R-Bzl(4-F)) = O=C(O)[C@H]1C[C@@H](Cc2ccc(F)cc2)CN1; Ala(pyrimidin-5-yl) = N[C@@H](Cc1cncnc1)C(=O)O; Phe(4-COOH) = N[C@@H](Cc1ccc(C(=O)O)cc1)C(=O)O; Pro(cis-4-F) = O=C(O)[C@@H]1C[C@H](F)CN1; Ala(4-THP) = N[C@@H](CC1CCOCC1)C(=O)O; cisHyp = O=C(O)[C@@H]1C[C@H](O)CN1; 4Pal = N[C@@H](Cc1ccncc1)C(=O)O; aThr = C[C@H](O)[C@H](N)C(=O)O; αMeD = C[C@](N)(CC(=O)O)C(=O)O; d(αMeS) = C[C@@](N)(CO)C(=O)O; Dab = NCC[C@H](N)C(=O)O; Aib = CC(C)(N)C(=O)O

This assay deals with Recombinant human IL-1β (BioLegend 579404) (human, UniProt P01584 117-269). The assay can be described thus: cell-based or functional assay.
With B1, the “MRC5 IC50” value turned out to be 38 pM.

Regarding B2, the “MRC5 IC50” value was 36 pM.

For the molecule B3, the “MRC5 IC50” value stood at 21 pM.

For the molecule B4, the “MRC5 IC50” value was 13 pM.

On to B5, for which the “MRC5 IC50” value worked out at 15 pM.

For B6, the “MRC5 IC50” value turned out to be 11 pM.

Consider B7, for which the “MRC5 IC50” value came to 19 pM.

Regarding B8, the “MRC5 IC50” value was determined as 16 pM.

As to B9, the “MRC5 IC50” value was determined as 14 pM.

Take B10: the “MRC5 IC50” value was 32 pM.

Regarding B11, the “MRC5 IC50” value was determined as 21 pM.

As for B12, the “MRC5 IC50” value was 14 pM.

Take B13: the “MRC5 IC50” value worked out at 15 pM.

As to B14, the “MRC5 IC50” value is 20 pM.

For the molecule B15, the “MRC5 IC50” value turned out to be 13 pM.

On to B16, for which the “MRC5 IC50” value is 43 pM.

Turning to B17, the “MRC5 IC50” value was 24 pM.

Regarding B18, the “MRC5 IC50” value was 14 pM.

For B19, the “MRC5 IC50” value amounted to 19 pM.

Turning to B20, the “MRC5 IC50” value is 16 pM.

For the origin of these results see patent publication US20260242419A1, “A CYCLIC PEPTIDE FOR TRAPPING INTERLEUKIN-1 BETA” (Merck Sharp & Dohme LLC, priority 2023, published 2026).
